# According to article PMC9972320:
# Where a chain is given by its changes, count along the chain named. Numbers in names are those of the source.
# B1: ZIKV xrRNA2 (structured_RNA)
# RNA: GAUAGUCAGGCCGAGAACGCCAUGGCACGGAAGAAGCCAUGCUGCCUGUGAGCCCCUCAGAGGACACUGAGU
# B2: DENV4 xrRNA mutant (DxM) (structured_RNA)
# RNA: UGUAGUCAGGCCGAGAACGCCACGGUUUGAGCAAACCGUGCUGCCUGUAGCUCCGCCAAUAAUGGGAGGCG
# B3: DENV4 xrRNA (structured_RNA)
# RNA: B2 RNA with U3A, G13A, A14C, G15U, A16U, A17G, C18U
# B4: ZIKV xrRNA2 P2M/P4M (structured_RNA)
# RNA: GAUAGUCAGGCCCGAAAGGCCAUGGCACGGAAGAAGCCAUGCUGCCUGUGAGCCCCUCCCGAAAGGGAGU
# Experiments:
# [1] = biological target: MSI1 RRM12 K21A/F23A (human, UniProt O43347 20-191, K21A;F23A); test: ITC; not impaired; 3 mM MgCl2; ITC: 20 mM HEPES pH 7.5, 150 mM NaCl, 3 mM MgCl2, 25 C; 30 uM RNA in cell, 600 uM protein titrant; conditions: protein: recombinant; tags: GST tag removed by PreScission; three-way junction with P4 and pseudoknots
# [2] = biological target: MSI1 RRM12 F63A/F65A (human, UniProt O43347 20-191, F63A;F65A); test: as above; conditions: protein: recombinant; tags: GST tag removed by PreScission; three-way junction with P4 and pseudoknots
# [3] = biological target: MSI1 RRM12 (human, UniProt O43347 20-191); test: ITC; 3 mM MgCl2; ITC: 20 mM HEPES pH 7.5, 150 mM NaCl, 3 mM MgCl2, 25 C; […]; conditions: protein: recombinant, tags: GST tag (pGEX-6p-1) removed by PreScission
# Chain of MSI1 RRM12 (O43347 20-191): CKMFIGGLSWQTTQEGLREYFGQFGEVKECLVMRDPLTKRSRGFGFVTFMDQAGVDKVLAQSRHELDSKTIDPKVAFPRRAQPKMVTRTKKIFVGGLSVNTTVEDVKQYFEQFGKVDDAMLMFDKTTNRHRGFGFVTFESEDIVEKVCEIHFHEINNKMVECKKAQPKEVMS
# Chain of MSI1 RRM12 F63A/F65A (O43347 20-191 F63A/F65A): as the sequence (O43347 20-191) above, with F44A, F46A counted along it
# Chain of MSI1 RRM12 K21A/F23A (O43347 20-191 K21A/F23A): as the sequence (O43347 20-191) above, with K2A, F4A counted along it
binder,measurement,setting,value
B1,binding result,[1],binds
same,binding result,[2],binds
same,Kd,[3]; three-way junction with P4 and pseudoknots,1900 ± 800 nM
B2,Kd,[3]; folded,2540 ± 310 nM
B3,binding result,[3]; folded,no binding
B4,binding result,[3]; folded,no binding
